This note sets out measurements from article doi:10.1101/2021.09.07.459239.

The term Kd denotes the equilibrium constant for the complex coming apart. Low values mean tighter binding, high ones weaker binding.

The target in assay [1] is CD80 cytosolic tail peptide (20-mer). In words: ELISA.
Assay [2] concerns the target CD86 cytosolic tail peptide (20-mer). Put plainly: ELISA. In general terms: ELISA stands for enzyme-linked immunosorbent assay.
Assay [3] concerns the target rF2-Nef protein (HIV-1 Subtype C), full length wild type (HIV-1 subtype C (F2 isolate)). Put plainly: MST.

Regarding “rF2-Nef protein (HIV-1 Subtype C), full length wild type (natural protein)”, the fold increase of ELISA signal over CD74 peptide or no-peptide wells in assay [1] and in assay [2] was 4 fold each time.

PRCRERRRNERLRRESVRPV [CD80 cytosolic tail peptide (20-mer)] displayed an equilibrium dissociation constant (Kd) in assay [3] of 27 µM.

Turning to LWKWKKKKRPRNSYKCGTNT [CD86 cytosolic tail peptide (20-mer)], in assay [3], the Kd came to 0.112 µM.
